B1: BRD3^BD2 (second bromodomain of BRD3, residues 306-416) (domain or fragment)
chain: GKLSEHLRYCDSILREMLSKKHAAYAWPFYKPVDAEALELHDYHDIIKHPMDLSTVKRKMDGREYPDAQGFAADVRLMFSNCYKYNPPDHEVVAMARKLQDVFEMRFAKMP

Assays:
[1] = molecular target: T1, BRD2^BD2 (second bromodomain of BRD2, residues 344-455) (UniProt P25440 344-455); experiment: ITC; ternary complex with PROTAC SJ46421 (BRD2BD2-SJ46421 in cell)
[2] = molecular target: T2, BRD4^BD2 (second bromodomain of BRD4, residues 334-460) (UniProt O60885 334-460); experiment: ITC; ternary complex with PROTAC SJ46421 (BRD4BD2-SJ46421 in cell)
[3] = molecular target: B1; experiment: ITC; ternary, BRD3 BD2 pre-bound to SJ46423
[4] = molecular target: B1; experiment: ITC; ternary, BRD3 BD2 pre-bound to PROTAC SJ46421
[5] = molecular target: B1; experiment: ITC; ternary complex with PROTAC SJ46423 (BRD3BD2-SJ46423 in cell)
[6] = molecular target: T2, BRD4^BD2 (second bromodomain of BRD4, …); experiment: ITC; ternary, BRD4 BD2 pre-bound to PROTAC SJ46421
[7] = molecular target: B1; experiment: ITC; ternary complex with PROTAC SJ46421 (BRD3BD2-SJ46421 in cell)
[8] = molecular target: T3, BRD4^BD2 G-to-E swap mutant (G386E) (UniProt O60885 334-460, G-to-E swap mutation (G386)); experiment: ITC; ternary, with SJ46421
[9] = molecular target: T4, BRD3^BD2 E344G swap mutant (UniProt Q15059 306-416, E344G); experiment: ITC; ternary, with SJ46421
[10] = molecular target: T5, BRD2^BD2 G-to-E swap mutant (G382E) (UniProt P25440 344-455, G-to-E swap mutation (G382)); experiment: ITC; ternary, with SJ46421
[11] = molecular target: T3, BRD4^BD2 G-to-E swap mutant (G386E); experiment: ITC; ternary complex with PROTAC SJ46421
[12] = molecular target: T4, BRD3^BD2 E344G swap mutant; experiment: ITC; ternary complex with PROTAC SJ46421
[13] = molecular target: T5, BRD2^BD2 G-to-E swap mutant (G382E); experiment: ITC; ternary complex with PROTAC SJ46421
[14] = molecular target: T1, BRD2^BD2 (second bromodomain of BRD2, …); experiment: ITC; ternary, BRD2 BD2 pre-bound to PROTAC SJ46421
[15] = molecular target: KLHDC2 K291 to alanine mutant (UniProt Q9Y2U9 15-361, K291 to alanine); experiment: ITC; ternary, with SJ46421
[16] = molecular target: KLHDC2 R112 to alanine mutant (UniProt Q9Y2U9 15-361, R112 to alanine); experiment: ITC; ternary, with SJ46421
[17] = molecular target: T6, KLHDC2 R56A mutant (UniProt Q9Y2U9 15-361, R56A); experiment: ITC; ternary, with SJ46421
[18] = molecular target: KLHDC2 H346/R347 to alanine mutant (UniProt Q9Y2U9 15-361, H346 to alanine | R347 to alanine, H346A and R347A taken as one combined double mutant, because the text lists H346/R347 as one of four patches mutated to alanine; whether they were combined is not printed explicitly); experiment: ITC; ternary, with SJ46421
[19] = molecular target: T6, KLHDC2 R56A mutant; experiment: ITC; ternary complex with PROTAC SJ46421

| Binder | Kd [1] [nM] | Kd [2] [nM] | Kd [3] [nM] | Kd [4] [nM] | Kd [5] [nM] | Kd [6] [nM] | Kd [7] [nM] | Kd [8] [nM] | Kd [9] [nM] | Kd [10] [nM] | Kd [11] [nM] | Kd [12] [nM] | Kd [13] [nM] | Kd [14] [nM] | Kd [15] [nM] | Kd [16] [nM] | Kd [17] [nM] | Kd [18] [nM] | Kd [19] [nM] |
| --- | --- | --- | --- | --- | --- | --- | --- | --- | --- | --- | --- | --- | --- | --- | --- | --- | --- | --- | --- |
| KLHDC2 substrate binding domain (KLHDC2^SBD, 15-361) (domain or fragment) GPAFESYESMELACPAERSGHVAVSDGRHMFVWGGYKSNQVRGLYDFYLPREELWIYNMETGRWKKINTEGDVPPSMSGSCAVCVDRVLYLFGGHHSRGNTNKFYMLDSRSTDRVLQWERIDCQGIPPSSKDKLGVWVYKNKLIFFGGYGYLPEDKVLGTFEFDETSFWNSSHPRGWNDHVHILDTETFTWSQPITTGKAPSPRAAHACATVGNRGFVFGGRYRDARMNDLHYLNLDTWEWNELIPQGICPVGRSWHSLTPVSSDHLFLFGGFTTDKQPLSDAWTYCISKNEWIQFNHPYTEKPRLWHTACASDEGEVIVFGGCANNLLVHHRAAHSNEILIFSVQP | 208 | 109 | 251 | 19 | 251 | 109 | 19 | 24.5 | 181 | 95.4 | 24.5 | 181 | 95.4 | 208 | – | – | – | – | – |
| B1 | – | – | – | – | – | – | – | – | – | – | – | – | – | – | 25.6 | 39.7 | 273 | 50.9 | 273 |

Reference: paper PMC11470957 (2024)
